Paper PMC10106849

Biological target: T1, RsCDF3 (Raphanus sativus, UniProt A0A6J0K2F2 1-435)
T1 sequence: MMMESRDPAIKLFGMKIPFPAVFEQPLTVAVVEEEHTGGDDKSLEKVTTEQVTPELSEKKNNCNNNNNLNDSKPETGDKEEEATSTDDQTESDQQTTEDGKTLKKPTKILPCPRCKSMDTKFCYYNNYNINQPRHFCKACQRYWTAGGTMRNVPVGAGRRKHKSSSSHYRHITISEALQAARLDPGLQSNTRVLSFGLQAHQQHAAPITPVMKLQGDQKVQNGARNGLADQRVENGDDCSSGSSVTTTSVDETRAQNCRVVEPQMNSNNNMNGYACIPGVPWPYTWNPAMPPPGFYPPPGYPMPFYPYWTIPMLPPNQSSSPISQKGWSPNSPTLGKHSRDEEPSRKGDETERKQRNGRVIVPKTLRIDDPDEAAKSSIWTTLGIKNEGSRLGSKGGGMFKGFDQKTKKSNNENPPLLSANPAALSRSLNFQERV
Test: competition

B1: mP1 mutated probe (dsDNA)
DNA 1: AATACACATTTATAATGTCTAGTTAAACTTAC
DNA 2: GTAAGTTTAACTAGACATTATAAATGTGTATT
B1: no binding.
